# Source: the supplement of paper PMC9170038
# Test system: MS2 coat protein
# Experiment: apparent KD of MS2 coat protein; designed switch direction (-1 OFF switch, 1 ON switch): -1; higher = weaker reporter binding
# Summary of the method: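 Transcription of designed RNA switches on Illumina chips was done by stalled E. coli RNA polymerase. SNAP-549-labelled MS2 coat protein was then titrated in doubling steps from 0.7 or 1.5 nM to 3 µM, with steps of 0.8–1.5 h at the lowest and 10–20 min at the highest concentration. The per-design median over clusters of curve-fitted normalised fluorescence is reported as apparent KD.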
# [1] = input ligand: microRNA oligo, concentration not stated
# [2] = Eterna round: R95, input ligand: FMN 200 uM
# [3] = Eterna round: R95, input ligand: microRNA oligo, concentration not stated
# [4] = Eterna round: R95, input ligand: none
Sequence,apparent KD of MS2 coat protein (input ligand: FMN 200 uM) [nM],apparent KD of MS2 coat protein (input ligand: none) [nM],apparent KD of MS2 coat protein [3] [nM],also measured
"GUGCCGCGAGGAUAUACAGACGGGUCCAGUACGUGUCUUGGACUUGAGGAUCACCCAAGUAGAAGGCGUCUCAG [salish99_ex2_r4_612] (Eterna round: R97, puzzle: Exclusion 2)",37.6,48.9,,
"UUUUGUCGUGACAUGGGUGACAUGAGGAUCACCCAUGUUACAAGCUUGUUGCUCGUCUUAUAAUUAACCCAUGUCAC [LRO Sensor-off var1-17 mod of Stov1-13-A1 by Brourd] (Eterna round: R97, puzzle: Sensor, turn-off variant 1)",17.6,16.1,,
"CGCUGGACAGGAUAUGUUCUUGGGCACUUGAGGAUCACCCAAGUCAUCGGGACAUCAGGCACAGAAGGGUUUAUGG [salish99_ex5_r4_026] (Eterna round: R97, puzzle: Exclusion 5)",19.1,21.1,,
"ACAGUGUUAGGAUAUCUGAGAAUUAGUCUCGACUAGUCGAAGGAGAAGGAACAUGAGGAUCACCCAUGUAGAUC [EX4 #76] (Eterna round: R97, puzzle: Exclusion 4)",295,41.6,,
"GAUUAACAUGAGGAUCACCCAUGUGAGGAUAUUGACUUGCUCACUUUCCGAUUCGAGUCGAGAAGGCGCAUCUU [1986#117] (Eterna round: R97, puzzle: Exclusion 1)",23.9,21.9,,
"UGAGUGCUGCGAGGAUAUACAUGAGGAUCACCCAUGUAAUCGUGUGAGGCAAAGCCUCACACGAAGUAGAAGGCGCAGUACUCU [Mat - Exclusion NG 2 - Mod of JL - D17] (Eterna round: R96, puzzle: Exclusion NG 2)",16,18.5,,apparent KD of MS2 coat protein [1]: 11.4 nM
"GUCCUCAUGGCGCCUAAACACAUGAGGAUCACCCAUGUACAGGCUUUUUGCCGUCUUAUAAUAAAACCGAGGAUGCG [Reanaor] (puzzle: Sensor v3, turn-off variant 1)",,,157,apparent KD of MS2 coat protein [2]: 103 nM; apparent KD of MS2 coat protein [4]: 148 nM
"GAAUGAGAGCAGGAUAUCUUAUAAGUGUAUGAAAGAGAAGGGCUCACAUGAGGAUCACCCAUGUGGUCCUAGAU [jl-ex6-4.86 jandersonlee mod] (Eterna round: R97, puzzle: Exclusion 6)",329,41.7,,
CAGUACUGAGGAUAUACAUGAGGAUCACCCAUGUCCCAAAAGUAGGAUACUACUAUUAGUAGAAGGCAGUACUG [Fiskers Ex 3 828 mod 25] (puzzle: Exclusion 3),,,38.9,
"AAUUAAUAUCAGGAUAUGACGUGCUGCGGCACGUCAGAAGGGAUGACAUGAGGAUCACCCAUGUGAUCAAUUAA [E6/1-A3] (Eterna round: R97, puzzle: Exclusion 6)",114,22.1,,
"UUGUUAUAUGUAGGAUAUGCAUAUUAUUAUUAUGCAGAAGGACAUGAGGAUCACCCAUGUAUAUUGUUGUUAUAUAUUAUAUAU [Title] (Eterna round: R96, puzzle: Exclusion NG 1)",,,,apparent KD of MS2 coat protein [1]: 18.2 nM
GUGUAGAUAGGAUAUGCUGGAAUCUAGCGAAGCUAGGUUCCACAUGAGGAUCACCCAUGUAGAAGGGUCUACAC [Dot plot directed A v11] (puzzle: Exclusion 2),,,127,
AAAAGGACAGGAUAUUCGACUCGCAACAUGAGGAUCACCCAUGUGGUCGUCCAGUCGCUCGAAGAAGGGUUAAAAC [Cegeesbe] (puzzle: Exclusion 5),,,26.7,apparent KD of MS2 coat protein [2]: 74.7 nM; apparent KD of MS2 coat protein [4]: 31.3 nM
"AUAUUAAUAGUAAGGAUAUGCGUAUAUAUAAUUAUGCAGAAGGUACAUGAGGAUCACCCAUGUAUUAAUGUAUA [LRO-BmodExc4-01-Oppy's Opus] (Eterna round: R97, puzzle: Brourd's mod of Exclusion 4)",16.5,15.6,,
"ACAUGAGGAUCACCCAUGUAAGGUUGGUUUUCUCCGGCUGUUGAGGAUAUAGUCCGGUAUCCGCGCUAGAAGGUGAGGGUUGGC [Aenatbe mod 10] (Eterna round: R96, puzzle: Exclusion NG 3)",73,77.2,,apparent KD of MS2 coat protein [1]: 71.2 nM
CUGGUCCGAGGAUAUAUUAUGUGAUACAUGAGGAUCACCCAUGUUAUAUGAUGGAUGUUAAUAGAAGGCGGACUAG [JL-ex5-3.20] (puzzle: Exclusion 5),,,109,apparent KD of MS2 coat protein [2]: 109 nM; apparent KD of MS2 coat protein [4]: 184 nM
"UUUGACUAAGGAUAUCCUUUUGACCACAUGAGGAUCACCCAUGUAUUCCACAAGUGCGAAGGAGAAGGUGGGAAGG [Eternabot (L2) Solution 28] (Eterna round: R97, puzzle: Exclusion 5)",65.6,56.1,,
GUGUAGCUAGGAUAUACAUGAGGAUCACCCAUGUGAAUAAGAUAGAAUAAGAUAAAGUGUAGAAGGAGUAGUGU [Excluse me!!! 15 - Jieux - Exclusion 3] (puzzle: Exclusion 3),,,18.2,apparent KD of MS2 coat protein [2]: 18.2 nM; apparent KD of MS2 coat protein [4]: 18.7 nM
"ACAAGCUUUUAGAUUCUUAACAUGAGGAUCACCCAUGUGCUCGUCUUACCGGCCGGCGGGCCGCCGGCCGGGCUUGU (Eterna round: R97, puzzle: Sensor, turn-off variant 1)",18.5,18.5,,
CAUACACAUGAGGAUCACCCAUGUGAGGAUAUGCGUACGUUGUCCGUAGGCGACGUGCGCAGAAGGCGCAAGGU [JL-ex1-3.17 Eli mod] (puzzle: Exclusion 1),,,50.4,
"UUCCGACAUGAGGAUCACCCAUGUGAGGAUAUGUUCGAAAGCUAAGACUGCGACAGGAAUAGAAGGCGCGGGUA [Eternabot (Original) Solution 17] (Eterna round: R97, puzzle: Exclusion 1)",20.4,20.4,,
"UAUUAGCAAGCGAGAUCCCACAUGAGGAUCACCCAUGUGCUCGUCGCAUCCAGAAUUACUGGGUGCGCUCGUCUUAU [Winner reversed engineered 15] (Eterna round: R97, puzzle: Sensor, turn-off variant 1)",23.8,23.7,,
"UACCCUAAGGUGAGGAUAUCUAGGCCUAGAGGUCAAGAGAAGGCACAUGAGGAUCACCCAUGUAGUUGAUACGA [BmEX4 B.25] (Eterna round: R97, puzzle: Brourd's mod of Exclusion 4)",77.4,21.9,,
